According to PMC5818740 (Protein Science : A Publication of the Protein Society, 2018):

What was measured:
[1] = molecular target: T1, lysine-methylated dimeric PICK1 PDZ-QSAV (human | , UniProt Q9NRD5 1-105, surface lysines methylated with 19C-labeled formaldehyde (so in the source)); test: NMR titration; 1H-13C HSQC of lysine-methylated dimeric PICK1 PDZ-QSAV with GluA2 peptide added; 40 mM sodium phosphate pH 6.8, 150 mM NaCl, 0.2 mM EDTA, DMSO, D2O; 298 K; details: both partners purified
T1 construct: human PICK1, residues 1 to 105, holding the PDZ domain; The methods say 'dimeric PICK1 PDZ-QSAV'; also called methylated PICK1 PDZ material; source: E. coli BL21 (DE3), purified; surface lysines methylated with labelled formaldehyde and sodium cyanoborohydride
T1 chain: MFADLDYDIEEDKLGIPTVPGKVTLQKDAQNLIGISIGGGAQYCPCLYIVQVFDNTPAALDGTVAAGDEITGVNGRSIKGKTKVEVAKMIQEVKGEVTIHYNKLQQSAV

[2] = molecular target: the molecule itself; test: SEC; Superdex 75 in 25 mM TRIS-HCl pH 8.0, 250 mM NaCl, 5% glycerol, 2 mM DTT (reducing conditions)
[3] = molecular target: the molecule itself; test: crystal structure; disulfide-locked PICK1 PDZ-QSAV dimer, crystallised with 4.5 molar equivalents of BIO124; 0.1 M BisTRIS pH 5.5, 25% PEG3350, 4°C; 2.44 Å
[4] = molecular target: the molecule itself; test: crystal structure; disulfide-bridged, bCPA-treated PICK1 PDZ-QS dimer with BIO124, seeded with PICK1 PDZ-QSAV crystals; 0.1 M BisTRIS pH 5.5, 25% PEG3350, 4°C; 1.75 Å

B1: wild type GluA2 peptide (VYGIESVKI) (peptide)
peptide: VYGIESVKI
notes: also called Wt GluR2 peptide; source: synthetic peptide, bought: New England Peptide
binding result [1]: binds

B2: PICK1 PDZ-QSAV (unlocked, reduced dimer) (domain or fragment)
chain: T1 chain
notes: The His tag is TEV cleavable; no cleavage step is described; also called PICK1 PDZ-QSAV protein; source: E. coli BL21 (DE3), purified (nickel resin, Superdex 75)
stoichiometry N [2]: 2

B3: disulfide-bridged (locked) PICK1 PDZ-QSAV dimer (domain or fragment)
chain: T1 chain
modifications: intermolecular disulfides C44(A)-C46(B) and C44(B)-C46(A)
notes: human PICK1, residues 1 to 105, holding the PDZ domain; Same construct as m1 after oxidation; crystallised in the presence of BIO124, which was not seen in the structure; also called dimeric PICK1 PDZ-QSAV; oxidized dimer; source: E. coli BL21 (DE3), purified (nickel resin, Superdex 75), oxidised with 2.5 mM H2O2, Superdex 75
binding result [3]: binds

B4: bCPA-treated PICK1 PDZ-QS (disulfide-bridged dimer, with BIO124) (domain or fragment)
chain: MFADLDYDIEEDKLGIPTVPGKVTLQKDAQNLIGISIGGGAQYCPCLYIVQVFDNTPAALDGTVAAGDEITGVNGRSIKGKTKVEVAKMIQEVKGEVTIHYNKLQQS
modifications: disulfide-bridged dimer
notes: human PICK1, residues 1 to 105, holding the PDZ domain; what is left of the fused PKCalpha QSAV tail after removal of the 0 and -1 position residues (AV) by carboxypeptidase A; Removal of AV was >95% by mass spectrometry; the small molecule BIO124 sits in the peptide groove of both chains; also called PICK1 PDZ-QS BIO124 complex; PICK1-PDZ-BIO124; source: E. coli BL21 (DE3), purified, oxidised …
binding result [4]: binds
